Laboratory results as given in the nanobody polyreactivity screen of Harvey et al. (2022).

Test: yeast display, Sf9 membrane polyspecificity reagent, FACS + sequencing; frameworks hold sequencing errors
In short: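 Using colony PCR, genes from sorted yeast display clones were amplified, then sequenced on MiSeq at 2 × 250 and filtered by CDR length. The clones had been stained with 10% biotinylated, detergent-solubilized Sf9 membrane reagent for 1 hour at 4 °C and sorted by FACS into low and high (top ~1%) gates on anti-HA and streptavidin fluorescence. Polyreactivity labels come from the gate of origin.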

Sequence	polyreactivity (PSR sort gate)
QVQLVESGGGLVQAGGSLRLSCAASGSIFGWYAKGLYRQAPGKEREFVAVISSSGDSTFYADSVKGRFTISRDNAKNTVYLQMNSLKPEDTAVYYCAAYYYYYYWPQTAYWQGDYWGHGTQVTVSS	high polyreactivity
QVQLVESGGGLVQAGGSLRLSCAASGRTFDFYAMGWYRQAPGKERELVASNTFSTGSTTYADSVKGRFTISRDNAKITVYLQMNILKPEDTAVYYCAADGDCWWWSYVDRYDYWGQGTQVTVSS	low polyreactivity
QVQLVESGGGLVQAGGSLRLSCAASGRTLQTYVMGWYRQAPGKERELVAAITRGGGSTYYADSVKGRFTISRDNAKNTVYLQMNSLKPEDTAVYYCAASALRFNSRFSHWYNYWGQGTQVTVSS	high polyreactivity
QVQLVESGGGLVQAGGSLRLSCAATGRIFYPYAMGWYRQAPGKERELVATIRWRGGSTRYADSVKGRFTISRDNAKNTVFLQMNSLKPEDTAVYYCAAGFKVEPTDLYYWGQGTQVTVSS	high polyreactivity
QVQLVESGGGLVQAGGSLRLSCAASGSIFFIYAMGWYRQAPGKERELVATITSGGSTYYADSVNGRFTISRDNAKNTVYLQMNSLKPEDTAVYYCAVDEYFAFDYWGQGTQVTVSS	low polyreactivity
QVQLVESGGGLVQAGGSLRLSCAASGFIIQYYAMGWYRQAPGKERELVAVISLSGGRTSYADSVKGRFTISRDNAKNTVYLQMNSLKPEDTAVYYCARRVWSASNDYWGQGTQVTVSS	high polyreactivity
QVQLVESGGGLVQAGGSLRLSCAASGRINLYNAMGWYRQAPRKEMELVAVISYRGGSTYYADSVKGRFTISRENAKNTVYLQMNSLKPDDTAVYYCNKDKSYSGTRYDYWGQGTQVTVSS	high polyreactivity
QVQLVESGGGLVQAGGSLRLSCAASGNAMGWYRQAPGKERELVAAITYGGTTTYYADTVKGRFTISRDNAKNTVYLQMTSQKPEDTAVYYCAADNVSVATPLRYDYWGQGTQVTVSS	low polyreactivity
QVQLVESGGGLVQAGGSLRLSCAASGRTFTYNAMGWYRQAPGKERELVASITWSGGRTYYADSVKGRFTISRDNAKNTVYLQMNSLKPEDTAVYYCAAYRWWGYITGVRGAKSIFDYWGQGTQVTVSS	high polyreactivity
QVQLVESGGGLVQAGGSLLLSCAASGITSYYYAMGGYRQAPGKERELVAAITRGGRTKYADSVKGRFTISRDNAKNTVYLQMNSLKPEDTAVYYCAADVWGQGTQVTVSS	high polyreactivity
QLKHVESGGGLVQAGGSLRLSCAASVGTFGLNAMGRYRQAPGKERELVADIDGRGGSTYYADSVKGRFTISRDNAKNTVNLQMNTLKPEDTAVYYCAARAPFLSVPSELDYCGQGTQVTVSS	low polyreactivity
QVQVVESGGGLVQAGGSLRLSCAASGFIFRRYAMGWYRQAPGKEMELVAAINYSGGSTYYADSVKGRFTISRDNEKNTVYLQMKSLKPEDNAVYYCNAYGLRYYEYDYWGQGTQVTVSS	low polyreactivity
QVQLVESGGGLFQAGGSLRLSCAASGSIFSWNDIGRYIQAPGKERELVAAITSGGSTYYADSVKGRFTISRDNAKNTVYLQMNSLKPEDTAVYYCAAGQDLHDFDYWGQGTQVTVSS	low polyreactivity
QVQLVESGGGLVQAGGSLRLSCAASGSTIPPYAMGWYRQAPGNERELVAAITSGGSTYYADSVKGRFTISRDNAKNTVYLQMNSLKPEDTAVYYCAASWDPWEYDYWGQGTQVTVSS	low polyreactivity
QVQLVESGGGLVQAGGSLRLSCAASGSTFAGNGMGWSRQAPGKERELVAGIDVTGGSTYYADSVKGRFTISRDNAKNTVYLQMNSLKPEDTAVYYCNARYVYHSSFAGFDYWGQGTQVTVSS	low polyreactivity
QVQLVESGGGLVQAGGSLRLSCAASGRTFPGNAMGWYRQAPGKERELVATISSGGTTYYADSVKGRFTISRDNAKNTVYLQMNSLKPEDTAVYYCATDTYHHKADYEYWGQGTQVSVSS	low polyreactivity
QVQLVESGGGLVQAGGSLRLSCAASGITLNGYVMGWYRQAPGKEREFVAVISSRGGSTYYADSVKGRFTISRDNAKNTVYLQMNSLKPEDTAVYYCAARWGYSRRGYRGYDYWGQGTQVTVSS	high polyreactivity
QVQLVESGGGLVQAGGSLRLSCAASGSSVYRYAMGWYRQAPGKERELVAAITWSGGSTYYADSVKGRFTISRDNAKNTVYLQMNSLKPEDSAVYYCAVEPFSNEFYYWGQGTQVTVSS	low polyreactivity
QVHLVESGGGLVQAGGSLRLICAASGSTFLYYAKGWYRQAPGNEMELVAANSQSSASTYYADSVKGRFTISRDNAKTTIYFQIISLKPEDTAVYYCAADYWSVPYIYEYWRQGTQVTVSS	high polyreactivity
QVQLVESGGGLVQAGVSLRLSCAASGFTFDYYAMGWYRQAPGKERELVAAISWSGGSTYYADSVKGRFTISRDNAKNTVFLQMNSLKPEDTAVYYCAGGRPNPRGRGLAYDFWVQGTQVTVSS	high polyreactivity
QVQLVESGGGLVQAGGSLRLSCAASGSNFAKYAMGWYRQAPGKERELVAAISWRGGSTYYADSVKGRFTISRDNAKNTVYLQMNSLKPEDTAVYYCNKVGTWQGPYDYWGQGTQVTVSS	high polyreactivity
QVQLVESVGGLLQAGGSLRLSCAASGRIFTGYAMGWYRQAPGKERELVAAISSRGGSTYYADSVKGRFTISRDNAKNTVYLQMNSLKPEDTAVYYCNAYQWRHRYTMYYWGQGTQVTVSS	high polyreactivity

Sequence	polyreactivity (PSR sort gate)
QVQLVESGGGLVQAGGSLRLSCAASGIIFGVYAMGWYRQAPGQERELVAAIDGNGSSTYYADSVKGRFTISRDNAKNTVYLQMNSLKPEDTAVYYCAAGYWSYLYYWYDFDYWGQGTQVTVSS	low polyreactivity
QVQLGESGGGLVQAGGSLRLSCAASGRIFAYYTMGWYRQAPGKERELVAAITSGGSTYYADSVKGRFTISRDYAKNTVYLQMNSLKPEATAVYYCAAGWYTPVYLYYYWGQGTQVTVSS	high polyreactivity
QVQLVESGGGLVQAGGSLRLSCAASGFIFRYNAMGWYRQAPGKERELVAAIDSGGSTYYADSVKGRFTISRDNAKNTVYLQMNSLKPEDTAVYYCNAVHEASYAGVDYWGQGTQVTVSS	low polyreactivity
QVQLVESGGGLVQAGGSLRLSCAASGFIFRSYVMGWYRQAPGKEREFVAVITSSGGRTYYADSVKGRFTISRDNAKNTVYLQMNSLKPEDTAVYYCAATRRYPPRRVWYDYWGQGTEVTVSS	high polyreactivity
QVQLVESGGGLVQAGGSLRLSCAASGFNFSPYAMGWYRQAPGKERELVAAISSSGGSTYYADSVKGRFTISRDNAKNTVYLQMNSLKPEDTAVYYCNAAGGYRTSPSDYWGQGTQVTVSS	high polyreactivity
QVQLEESGGGLVQAGGTLRLSCAACGRTFYRYAMGWYRKAPGKERQLVAAISASGGITYYADSVKGRFTISRDNAKNNVYLQMNSLKADDTAVYYCAVRYNPWYGNYDYWGQGTQVTVSS	high polyreactivity
QVQLVESGGGLVQAGGSLRLSCAASGYTFSRYAMGLYRQAPGKERELVAAISHSAGRTYYADSVKGRFTISRDNAKNTVYLKMNSLKPEDTAVYYCATVLYSVPRYNYWGQGSQVTVSS	high polyreactivity
QVQLVESGGRLVQAGGSLLLSCAASGRIFRLYAMGWNTQAPGKERQLVASISSTGRTNYADSVKGRFTISRDNAKNTVYLQMNCLKPEDTAVYYCNAAVIYRYSQWDYGYWGLGTQVTVSS	high polyreactivity
QVQLVESGGGLVKAGGSLRLSCAASGSTIGGNAMVWYRQAPGKERELVASITRSGGSTYYADSVKGRFTISRDNAKNNVYLQMNSLKPEDSAVYYCAAGKWYRSPWKYDYWGQVTQVTVSS	low polyreactivity
QVQHVESGGGLVQAGGSLRLSCAASGSIFWDNAMGWYRQAPGKERELVAAITSSGDTTYYADSVKGRFTISRDNAKNTVYLQMNSLKPEDTAVYYCAKVFGPTDYLTGTFKGDYWGQGTQVTVSS	low polyreactivity
QVQLVESGGGLVQAGGSLRLSCAASGRIFSDYAMGWYRQAPGKERELVATISASGGSTYYADSVKGRFTVSRDNAKNSVYLQMNSLKPEDTAVYYCAGDYEGYNFDYWGQGTQVTVSS	low polyreactivity
QVQLVESGGGLVQAGGSLRLSCAPSGLIFGRYAMGWYRQAPGKERELVAAISSSGVRTYYADSVKGRFTISRDNAKNTVYLQMNSLKPEDTAVYYCAAAYWSSREDTVIKRYYWGQGTQVTVSS	high polyreactivity
QVQLVESVGGLVQAGGSLRLSCAASGITFDDYAMGWYRQAPGKERELVAVISSSGGSTYYADSVKGRFTISRDNAKNTVYLQMNSLKPEDTAVYYCAARFEVWYTRRVLLGEYDYWGQGTQVTVSS	low polyreactivity
QDQLVESGVGLVQEGGSLRLSCAASGSILKRYVMGWYRQAPGKERELVAAISSGSRTYYADSVKGRFTISRDNAKNTVYLQMNSLKPEDTAVYYCAADLTYKYHYDYWGQGTQVTVSS	high polyreactivity
QVQLVESGGGLVQEGGSLRLSCAASGSTFSNYMGWYRQAPGKERELVAAITQSGVSTYYADSVKGRFTISRDNAKNTVYLQMNSLKPEDTAVYYCYNYLSGYDYWGQGTQVTVSS	low polyreactivity
QDQLVESVGGLVQAGGSLRLSCAASGRTLVRYVMGWYRQAPGKERELVAAISARTGSTYYADSVKGRFTISRDNAKNTVYLQMNSLKPEDTAVYYCATKFSSYDTRVSYDYWGQGTQVTVSS	low polyreactivity
QVQLVESGGGLVQAGGSLRLSCAASGSTLVYNDMGWYRQAPGKEREFVAAIRSNDGSTYYADSVKGRFTISRDNAKNTVYLQMNSLKPEDTAVYYCAARYPARGTLYYWGQGTQVTVSS	low polyreactivity
QVQLVESGGGLVQAGGSLRLSCAASGFIIARNAMGWYRQAPGKERELVAAISASGGRTYYADSVKGRFTISRDNAKNTVYLQMNSLKPEDTAVYYCAARRDGRSGSYNYWGQGTQVTVSS	high polyreactivity
QVQLVESGGGLVQAGGSLRLSCAASGRIFAVYAMGWYRQAPGKERELVAAIRWSGVRTYYADSVKGRFTISRDNAKNTVYLQMNSLKPEDTAVYYCAAEYSGQYYSPVSFLYDYWGQGTQVTVSS	high polyreactivity
QVQLVESGGGLVQAGGSLRISCADCGSIFEVNAMGWYRPAPGTERELVAAISSGDRTNYADSVKGRFTISRDNAKNTVYLQMNSLKPEDTAVYYCNKGAAWRPFFGPYYNYEYWGQGTQVTVSS	high polyreactivity
QVQLVESGGGLVQAGGSLRLSCAASGRSFKKYAMGWYRQAPGKERELVAAITASGGSTYYADSVKGRYTISRDNAKNTVYLQMNSLTPEDTAVYYCAAYAYGVWHSQDGGNYWGQGTQVTVSS	low polyreactivity
